Changes are numbered by the printed parent chain.
Experiments:
Test in all cases: ITC
AnkG R1-24 I277Q, L310Q = biological target: T1, AnkG R1-24 I277Q, L310Q (Rattus norvegicus)
T1 chain: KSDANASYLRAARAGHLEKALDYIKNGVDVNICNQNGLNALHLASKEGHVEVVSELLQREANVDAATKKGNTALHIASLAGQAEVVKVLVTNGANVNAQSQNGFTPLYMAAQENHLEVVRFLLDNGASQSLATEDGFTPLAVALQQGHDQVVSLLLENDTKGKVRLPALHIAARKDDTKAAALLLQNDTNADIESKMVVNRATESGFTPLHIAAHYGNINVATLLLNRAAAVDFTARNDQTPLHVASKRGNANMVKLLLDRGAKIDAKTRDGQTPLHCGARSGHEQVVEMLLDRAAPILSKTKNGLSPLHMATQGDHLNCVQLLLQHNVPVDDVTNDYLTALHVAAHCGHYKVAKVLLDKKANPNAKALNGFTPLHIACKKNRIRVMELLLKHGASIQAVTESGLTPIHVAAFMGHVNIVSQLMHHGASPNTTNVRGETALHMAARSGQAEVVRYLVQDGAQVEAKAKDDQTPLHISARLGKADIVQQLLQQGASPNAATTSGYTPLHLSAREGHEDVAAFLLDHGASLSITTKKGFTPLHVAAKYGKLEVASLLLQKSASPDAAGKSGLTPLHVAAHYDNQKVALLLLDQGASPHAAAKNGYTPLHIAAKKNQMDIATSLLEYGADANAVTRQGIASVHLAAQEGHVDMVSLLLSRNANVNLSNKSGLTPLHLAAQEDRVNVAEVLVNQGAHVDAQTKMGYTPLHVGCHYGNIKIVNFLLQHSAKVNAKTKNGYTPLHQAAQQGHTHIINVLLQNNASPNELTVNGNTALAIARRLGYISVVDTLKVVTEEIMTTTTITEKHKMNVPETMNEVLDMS

AnkG R1-24 V282Q = biological target: T2, AnkG R1-24 V282Q (Rattus norvegicus)
T2 chain: T1 chain with Q240I, V245Q, Q273L

AnkG R1-24 L343Q, L376Q = biological target: T3, AnkG R1-24 L343Q, L376Q (Rattus norvegicus)
T3 chain: T1 chain with Q240I, Q273L, L306Q, L339Q

Kd (AnkG R1-24 I277Q, L310Q): 3000 nM
Kd (AnkG R1-24 V282Q): 1300 nM
Kd (AnkG R1-24 L343Q, L376Q): 2000 nM
B1: Nfasc ankyrin-binding domain (ABD, residues 1187-1214) (domain or fragment, UniProt P97685 1187-1214, looked up)
chain: SDDSLVDYGEGGEGQFNEDGSFIGQYTV
notes: also called Nfasc ABD; source: E. coli BL21 (DE3), purified (Ni-NTA, size-exclusion chromatography)

From paper PMC9396398, “Crystal structure of Ankyrin-G in complex with a fragment of Neurofascin reveals binding mechanisms required for integrity of the axon initial segment” (The Journal of Biological Chemistry, 2022)
